Patent US20170137818, “APTAMER INHIBITING BIOLOGICAL ACTIVITY OF AUTOTAXIN BY BINDING WITH AUTOTAXIN, AND USE THEREOF” (RIBOMIC INC., published 2017)

target: T1, autotaxin (ENPP2/NPP2) (Homo sapiens, UniProt Q13822 Q13822:36-863); assay: inhibition; NPP2 assay per text (column headed LysoPLD)

Binder | IC50 [nM]
CCTGGACGGAACCAGAATACTTTTGGTCTCCAGG (ssDNA, 2'-OMe C7,G9,A14,G15,A19,C20,A32,G33,G34; P-butoxy between C12 and C13; 5' idT, 3' idT) [12(152)] | 0.23

target: autotaxin (endogenous, human pooled serum) (Homo sapiens, UniProt Q13822 Q13822:36-863); assay: inhibition; LPA production in serum, 0.025 uM

Binder | activity [% inhibition]
CCTGGACGGAACCAGAATACTTTTGGTCTCCAGG (ssDNA, 2'-OMe C7,G9,A14,G15,A19,C20,A32,G33,G34; P-methyl C1,G5,G8,C12,A16,T21,T23,C28,C30,C31; 5' idT, 3' idT) [12(132)] | 59
CCTGGACGGAACCAGAATACTTTTGGTCTCCAGG (ssDNA, 2'-OMe C7,G9,A14,G15,A19,C20,A32,G33,G34; P-methyl C1,G5,G8,C12,A14,A16,A19,T21,T23,C28,C30,C31,G34; 5' 40 kDa PEG via ssH linker, 3' idT) [12(147)] | 70
CCTGGACGGAACCAGAATACTTTTGGTCTCCAGG (ssDNA, 2'-OMe C7,G9,A14,G15,A19,C20,A32,G33,G34; P-methyl C1,G5,G8,C12,A16,A19,T21,T23,C28,C30,C31; 5' idT, 3' idT) [12(139)] | 71
CCTGGACGGAACCAGAATACTTTTGGTCTCCAGG (ssDNA, 2'-OMe C7,G9,A14,G15,A19,C20,A32,G33,G34; P-methyl C1,G5,G8,C12,A16,T21,T23,C28,C30,C31,G34; 5' idT, 3' idT) [12(135)] | 50
CCTGGACGGAACCAGAATACTTTTGGTCTCCAGG (ssDNA, 2'-OMe C7,G9,A14,G15,A19,C20,A32,G33,G34; P-methyl G8,C12,C28; 5' 40 kDa PEG via ssH linker, 3' idT) [12(133)] | 90
CCTGGACGGAACCAGAATACTTTTGGTCTCCAGG (ssDNA, 2'-OMe C7,G9,A14,G15,A19,C20,A32,G33,G34; P-methyl C1,G5,G8,C12,A16,A19,T21,T23,C28,C30,C31; 5' 40 kDa PEG via ssH linker, 3' idT) [12(145)] | 82
CCTGGACGGAACCAGAATACTTTTGGTCTCCAGG (ssDNA, 2'-OMe C7,G9,A14,G15,A19,C20,A32,G33,G34; P-methyl C1,G5,G8,C12,A16,T21,T23,C28,C30,C31,G34; 5' 40 kDa PEG via ssH linker, 3' idT) [12(144)] | 87
CCTGGACGGAACCAGAATACTTTTGGTCTCCAGG (ssDNA, 2'-OMe C7,G9,A14,G15,A19,C20,A32,G33,G34; P-methyl C1,G5,G8,C12,A14,A16,T21,T23,C28,C30,C31; 5' idT, 3' idT) [12(141)] | 56

target: T1, autotaxin (ENPP2/NPP2); assay: inhibition; LysoPLD assay, 2 mM 14:0 LPC, 2.1 nM autotaxin, 37 C

Binder | IC50 [nM]
CCTGGACGGAACCAGAATACTTTTGGTCTCCAGG (ssDNA, 2'-OMe C7,G9,A14,G15,A19,C20,A32,G33,G34; P-methyl G5,G8,C12,A16,T21,T23,C28,C30,C31,G34; 5' idT, 3' idT) [12(149)] | 6.1
CCTGGACGGAACCAGAATACTTTTGGTCTCCAGG (ssDNA, 2'-OMe C7,G9,A14,G15,A19,C20,A32,G33,G34; P-methyl C1,G5,G8,C12,A16,T21,T23,C28,C30,C31,G34; 5' 40 kDa PEG via ssH linker, 3' idT) [12(144)] | 1.6

target: T1, autotaxin (ENPP2/NPP2); assay: inhibition; LPA production, 1.0 uM aptamer, ~92% serum, 37C 3 h

Binder | activity [% inhibition]
CCTGGACGGAACCAGAATACTTTTGGTCTCCAGG (ssDNA, 2'-OMe C1,G5,C7,G9,C12,A14,G15,A19,C20,A32,G33,G34; idT 5' and 3') [12(43)] | 85
CCTGGACGGAACCAGAATACTTTTGGTCTCCAGG (ssDNA, 2'-OMe C1,C7,G9,C12,A14,G15,A19,C20,A32,G33,G34; idT 5' and 3') [12(45)] | 86
CCTGGACGGAACCAGAATACTTTTGGTCTCCAGG (ssDNA, 2'-OMe C1,G5,C7,G9,C12,C13,A14,G15,A19,C20,C30,A32,G33,G34; idT 5' and 3') [12(47)] | 57
CCTGGACGGAACCAGAATACTTTTGGTCTCCAGG (ssDNA, 2'-OMe C1,G5,C7,G9,C13,A14,G15,A19,C20,A32,G33,G34; idT 5' and 3') [12(44)] | 87
CCTGGACGGAACCAGAATACTTTTGGTCTCCAGG (ssDNA, 2'-OMe C1,C7,G9,C13,A14,G15,A19,C20,A32,G33,G34; idT 5' and 3') [12(46)] | 83

target: T1, autotaxin (ENPP2/NPP2); assay: inhibition; NPP2 assay, pNP-TMP, 37 C

Binder | IC50 [nM]
CCTGGACGGAACCAGAATACTTTTGGTCTCCAGG (ssDNA, 2'-OMe C7,G9,A14,G15,A19,C20,A32,G33,G34; 3' idT) [12(148)] | 6.8

target: T1, autotaxin (ENPP2/NPP2); assay: inhibition; LPA production, 0.025 uM aptamer, ~92% serum, 37C 3 h

Binder | activity [% inhibition]
CCTGGACGGAACCAGAATACTTTTGGTCTCCAGG (ssDNA, 2'-OMe C7,G9,A14,G15,A19,C20,A32,G33,G34; P-methyl C1,G5,G8,C12,A14,A16,T21,T23,C28,C30,C31; 5' 40 kDa PEG (GL2-400GS2) via ssH linker; 3' idT) [12(146)] | 70
CCTGGACGGAACCAGAATACTTTTGGTCTCCAGG (ssDNA, 2'-OMe C7,G9,A14,G15,A19,C20,A32,G33,G34; P-methyl C1,G5,G8,C12,A16,T21,T23,C28,C30,C31; 5' 40 kDa PEG (GL2-400GS2) via ssH linker; 3' idT) [12(134)] | 69
CCTGGACGGAACCAGAATACTTTTGGTCTCCAGG (ssDNA, 2'-OMe C7,G9,A14,G15,A19,C20,A32,G33,G34; P-methyl C1,G5,G8,C12,G15,A16,T21,T23,C28,C30,C31; idT 5' and 3') [12(140)] | 29
CCTGGACGGAACCAGAATACTTTTGGTCTCCAGG (ssDNA, 2'-OMe C7,G9,A14,G15,A19,C20,A32,G33,G34; P-methyl C1,G5,G8,C12,A16,T21,T23,C28,C30,C31,G33; idT 5' and 3') [12(136)] | 17
CCTGGACGGAACCAGAATACTTTTGGTCTCCAGG (ssDNA, 2'-OMe C7,G9,A14,G15,A19,C20,A32,G33,G34; P-methyl C1,G5,G8,C12,A16,C20,T21,T23,C28,C30,C31; idT 5' and 3') [12(138)] | 44
CCTGGACGGAACCAGAATACTTTTGGTCTCCAGG (ssDNA, 2'-OMe C7,G9,A14,G15,A19,C20,A32,G33,G34; P-methyl C1,G5,G8,G9,C12,A16,T21,T23,C28,C30,C31; idT 5' and 3') [12(142)] | 44
CCTGGACGGAACCAGAATACTTTTGGTCTCCAGG (ssDNA, 2'-OMe C7,G9,A14,G15,A19,C20,A32,G33,G34; P-methyl C1,G5,G8,C12,A16,T21,T23,C28,C30,C31,A32; idT 5' and 3') [12(137)] | 56
